± gives the uncertainty stated by the source.

The series in a line: amyloid nucleation score (Sup35N fusion, yeast selection) (log enrichment); library NNK1; higher = more nucleation; inactive = no reads after selection. In outline:
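Sup35N fusions to peptides of 20 random codons were expressed in psi-negative yeast, induced 24 hours with 100 μM copper sulfate, and grown 7 days at 30°C on medium lacking adenine and uracil. Input and output plasmid inserts were sequenced by Illumina. The nucleation score is the DiMSum log enrichment of output over input reads, centred on the mode score of non-aggregating sequences. Sequences with under 100 input reads were excluded.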
SGFENRDSIPIAPCIRLLLV: the amyloid nucleation score was -0.056 ± 0.59.

In turn, SGFRVKQYMFLCFY returned an amyloid nucleation score of -0.473 ± 0.73.

With SGGMFQVICLV, the amyloid nucleation score is 0.263 ± 0.34.

The substance SGHACTGR yielded an amyloid nucleation score of 0.616 ± 0.4.

For the substance SGKLCWLCVNCVILGSCKSL, the amyloid nucleation score is -0.442 ± 0.73.

On to SGKTALNSGSFKFLTSSICG, for which the amyloid nucleation score is 0.224 ± 1.4.

For SGMFYILPTSPGYAHEVPRR, the amyloid nucleation score was found to be 0.393 ± 0.35.

In turn, SGNGG registered an amyloid nucleation score of -0.158 ± 0.34.

SGNTSPCCVSKFDLPHSTGK gave an amyloid nucleation score of 0.245 ± 0.3.

For the substance SGRLVSRGTKHNQSSRCE, the amyloid nucleation score was -0.232 ± 0.9.

Substance SGSNEWSRENLIGVFVVPGQ had an amyloid nucleation score of -0.21 ± 1.1.

Turning to SGTAKGVLAW, the amyloid nucleation score is 1.4 ± 0.63.

For the substance SGTAVSIVAWYTMTQLDHAG, the amyloid nucleation score was -0.001 ± 0.37.

With SGVICWYQKLAGINDALRWA, the amyloid nucleation score is 1.21 ± 0.25.

SGWNEFTRGTTRVHWRNQYS displayed an amyloid nucleation score of -1.48 ± 2.4.

Substance SGWYDP gave an amyloid nucleation score of -0.523 ± 0.7.

SHCCLDQLGVSDKAR had an amyloid nucleation score of 0.142 ± 0.62.

The substance SHDSKAAHPWSLRNYVATRR came in with an amyloid nucleation score of 0.182 ± 0.42.

As for SHGKVVIFSPSHCAGFFSCS, the amyloid nucleation score was found to be 7.699 ± 0.061.

SHRYFKWLRSIDEEVVESL: the amyloid nucleation score is 0.677 ± 0.9.

Regarding SHTAVFSRAAIEMCCRDWRA, the amyloid nucleation score was found to be 0.537 ± 0.47.

Consider SHTCYRIVTAPDTLLVSLGV, for which the amyloid nucleation score amounted to 0.438 ± 0.36.

Substance SHTHEHKFSSSRCGELNSEK came in with an amyloid nucleation score of -0.902 ± 0.38.

SIFSSWMSWGLII returned an amyloid nucleation score of 0.194 ± 0.39.

As to SIGVFNCNCHRNYEHRYRYM, the amyloid nucleation score came to 1.22 ± 0.15.

As for SIMGVDRLVVVWYGFDRCGF, the amyloid nucleation score turned out to be 1.31 ± 0.66.

As for SINRRALRLGHHSSGVMAGL, the amyloid nucleation score is -0.547 ± 1.3.

Take SIPFGIIMETCENLTDFAVY: the amyloid nucleation score is -0.74 ± 0.85.

In turn, SISRGWFMWEDNRISRFLLI displayed an amyloid nucleation score of 0.266 ± 0.37.

SITFRRSYTNM yielded an amyloid nucleation score of 0.411 ± 0.67.

SITRKRVRRDAGGMVCGLVS: the amyloid nucleation score entry was “inactive”.

SITSSYKYGKVSWSMSLGVG: the amyloid nucleation score is -1.07 ± 0.46.

SITVPGFVAQISGVPIREYC: the amyloid nucleation score came out at 0.348 ± 0.79.

In turn, SITWNPPVPVRTNVVDRNLG came in with an amyloid nucleation score of 0.48 ± 0.52.

In turn, SIVKRNLNAFAGLSLYMIFG returned an amyloid nucleation score of -0.764 ± 0.54.

SIVLTIIKHFDYMFQDRGG registered an amyloid nucleation score of 6.06 ± 0.07.

The substance SIVMGSVMTFGFDIFL yielded an amyloid nucleation score of 4.47 ± 0.066.

In turn, SIVVLGASTWR showed an amyloid nucleation score of 0.032 ± 0.61.

Take SIYRSVIIVMDTKVMRDVLF: the amyloid nucleation score stood at 4.97 ± 0.067.

As to SKCNFVHSRLGIALQYETRL, the amyloid nucleation score stood at 3.56 ± 0.1.

The substance SKCRL showed an amyloid nucleation score of 1.92 ± 0.62.

Substance SKFVSKNCWTARGAL yielded an amyloid nucleation score of -0.166 ± 0.48.

Substance SKGPWGLY registered an amyloid nucleation score of -0.517 ± 1.1.

SKIGDEM: the amyloid nucleation score was -1.29 ± 1.2.

SKLKAYICLCRMEIVLIPRF had an amyloid nucleation score of -0.978 ± 1.7.

SKNHSFDSYVMTVYFHHCGK returned an amyloid nucleation score of -0.291 ± 0.4.

SKRATYFFTASLGTQRCLMK returned an amyloid nucleation score of 1.29 ± 0.9.

SKRLACSYSSMFVKCSEYKL came in with an amyloid nucleation score of 0.413 ± 0.97.

The substance SLCILDEQVDHFVAEGVGID had an amyloid nucleation score of 0.876 ± 0.42.

As for SLDGNFTKALLLKIR, the amyloid nucleation score was 1.08 ± 0.35.

As to SLDVILVPMCTFCRGMAYCS, the amyloid nucleation score was 0.457 ± 1.1.

Substance SLFLMIVVYHVHVRALYILV displayed an amyloid nucleation score of 0.531 ± 0.93.

Regarding SLFPVTVRKDCCLT, the amyloid nucleation score was -0.434 ± 0.39.

With SLFSWVCRSITGPILRISLR, the amyloid nucleation score turned out to be 0.73 ± 0.24.

In turn, SLIISKEGRYVFYVCLRGWW had an amyloid nucleation score of -0.447 ± 0.42.

In the case of SLIKGSTKLPR, the amyloid nucleation score was 0.273 ± 0.6.

The substance SLISCEWSYTWCGKFVILLV yielded an amyloid nucleation score of -0.707 ± 1.1.

For the substance SLITGIRRSGMAICLDLWAG, the amyloid nucleation score is -1.21 ± 2.7.

Regarding SLIYNRIRFLDGF, the amyloid nucleation score was 0.925 ± 1.1.

In the case of SLMVSRGDTCG, the amyloid nucleation score is -0.181 ± 0.35.

In the case of SLMWLWIFSRAGSLSLLLIA, the amyloid nucleation score is 0.718 ± 1.2.

SLNFT: the amyloid nucleation score was -0.337 ± 0.31.

SLPITLLPKGFATKVFVRVC registered an amyloid nucleation score of -0.127 ± 0.72.

SLPLTVVLYCHRYG came in with an amyloid nucleation score of 5.05 ± 0.064.

Consider SLPNILLSQPMFRRISSMLQ, for which the amyloid nucleation score came to 1.17 ± 0.62.

With SLPRSSIRYRFQCVRLESVM, the amyloid nucleation score is -0.601 ± 0.47.

Turning to SLQINMTSSICLVST, the amyloid nucleation score is 3.35 ± 0.07.

In turn, SLQTTWLKNLGDLSSSREAS displayed an amyloid nucleation score of -0.121 ± 0.73.

Substance SLRFPKKGYVTRCTAWYLGV registered an amyloid nucleation score of 3.45 ± 0.083.

In the case of SLRGQAHLQFSLRILSHSS, the amyloid nucleation score is 1.4 ± 0.24.

On to SLRILRSRS, for which the amyloid nucleation score entry was “inactive”.

SLSLDSNEKRKRICFW: the amyloid nucleation score was determined as 1.36 ± 0.29.

Take SLSLIVVKNGIFLVH: the amyloid nucleation score was 3.16 ± 0.12.

Consider SLTAVISTKVL, for which the amyloid nucleation score is -0.663 ± 1.7.

Consider SLVFQDRRYLTAFLGFVLWL, for which the amyloid nucleation score was -0.476 ± 0.51.

On to SLVYYLGEWV, for which the amyloid nucleation score is -0.366 ± 0.34.

On to SLYGYCLYARMCTASSKKLI, for which the amyloid nucleation score came out at 1.09 ± 0.28.

In turn, SMESLTVEAMNSVEAFPVTY had an amyloid nucleation score of -1.22 ± 0.73.

Substance SMFASL displayed an amyloid nucleation score of -0.229 ± 0.43.

Substance SMGLHLMQMAAGEHIGRNR displayed an amyloid nucleation score of -0.31 ± 0.4.

Substance SMRFYYA showed an amyloid nucleation score of 2.97 ± 0.23.

In the case of SMSAQPFCNHV, the amyloid nucleation score is -0.926 ± 0.91.

Regarding SMTKSIGMRSYGMVAHGAGS, the amyloid nucleation score worked out at 0.722 ± 0.45.

Turning to SMTRIANSMINVFGENPSNS, the amyloid nucleation score is -0.267 ± 0.69.

Consider SMVVV, for which the amyloid nucleation score entry was “inactive”.

With SMWTKKLFMFHNGI, the amyloid nucleation score was 0.201 ± 0.56.

With SMYKMDMSLSTWCWFAWHDH, the amyloid nucleation score was -0.37 ± 0.45.

For the substance SNCGWRIFKEM, the amyloid nucleation score was -1.35 ± 2.1.

As to SNCRDKRFMY, the amyloid nucleation score was found to be 0.637 ± 0.79.

As to SNESILFVGSPVTRFIQYVD, the amyloid nucleation score entry was “inactive”.

The substance SNFCDTCLKLRGNTCMASFT showed an amyloid nucleation score of -0.259 ± 0.42.

Substance SNFTEVLLSECFLVWLMFTH gave an amyloid nucleation score of 0.089 ± 0.87.

As to SNGLGMVRDR, the amyloid nucleation score was -0.172 ± 0.67.

Turning to SNGMRRLTKVDEHSL, the amyloid nucleation score came out at 0.933 ± 0.54.

With SNHQLEYRL, the amyloid nucleation score is 1.52 ± 0.55.

In the case of SNLDLHRSVLSRLGKYLDFP, the amyloid nucleation score was 5.35 ± 0.081.

SNLECV yielded an amyloid nucleation score of -0.019 ± 0.51.

Substance SNMEYVMNEILVRLALPTSR registered an amyloid nucleation score of -0.671 ± 1.5.

In turn, SNRFVPSNSSKVGSNVIDAK had an amyloid nucleation score of 0.386 ± 0.36.

As for SNRLLGVEAGVGCEIVKYNR, the amyloid nucleation score was -0.301 ± 0.38.

For SNRNAGRKTMGHLWHQE, the amyloid nucleation score amounted to 0.2 ± 0.42.

Turning to SNSLLQGVTIWPNYPLCGNL, the amyloid nucleation score was found to be 0.464 ± 0.53.

In turn, SNTKIED returned an amyloid nucleation score of 0.508 ± 0.59.

Substance SNVFYVYRVVKSCIIFDSVL showed an amyloid nucleation score of 2.6 ± 0.076.

Substance SNWLFWFIKMGQFQDSICYA gave an amyloid nucleation score of -0.616 ± 1.4.

As to SNYSQLLVMEVLHLGYTIRR, the amyloid nucleation score is -1.19 ± 0.91.

For the substance SPESRRQWCL, the amyloid nucleation score entry is “inactive”.

Regarding SPGFYLHGYQQNQHP, the amyloid nucleation score worked out at 0.653 ± 0.68.

For SPNLI, the amyloid nucleation score was 0.344 ± 0.9.

In the case of SPPLSASS, the amyloid nucleation score is -0.476 ± 1.9.

SPSES returned an amyloid nucleation score of -0.31 ± 0.61.

The substance SPVRIYTSRSIMRFNVRKPT had an amyloid nucleation score of -0.306 ± 0.9.

In turn, SPYGALFLDQLFYYQGADRG had an amyloid nucleation score of 1.05 ± 0.84.

Consider SQCLMKGHCKT, for which the amyloid nucleation score was determined as 0.286 ± 0.66.

Substance SQIDYNDSCWNLGNP gave an amyloid nucleation score of 0.164 ± 0.39.

Substance SQLFYAILSIHYWCVTFFRC registered an amyloid nucleation score of 0.642 ± 0.33.

On to SQPSMPNSVGGDTFG, for which the amyloid nucleation score was -0.658 ± 0.49.

Substance SQRNLHTTYTYVAYRDYAER had an amyloid nucleation score of 0.957 ± 0.29.

With SQWALKITFYKMVAL, the amyloid nucleation score was -0.171 ± 1.1.

The substance SRAINVSVMWVRFS gave an amyloid nucleation score of 2.81 ± 0.13.

In the case of SRGSVCIAMHLAC, the amyloid nucleation score turned out to be 0.001 ± 0.37.

In turn, SRGVAALYSSNI registered an amyloid nucleation score of -0.278 ± 0.35.

Take SRIIGMSRCCIGHRYMYMKT: the amyloid nucleation score was -0.598 ± 1.4.

For the substance SRLGLSSDY, the amyloid nucleation score is 0.092 ± 0.33.

Turning to SRLTFVVVWDSSVVHIRMTG, the amyloid nucleation score stood at 3.46 ± 0.12.

SRLWSSCHCHLAAYSVIHDD: the amyloid nucleation score entry is “inactive”.

Take SRLWVFD: the amyloid nucleation score is 0.314 ± 0.79.

Regarding SRMLPVMFSGP, the amyloid nucleation score is -1.06 ± 0.89.

The substance SRVLSCEGWLK yielded an amyloid nucleation score of -0.051 ± 0.9.

SRYKTPSVDGVFCSALRGSG had an amyloid nucleation score of 0.301 ± 0.61.

SSCVRN came in with an amyloid nucleation score of -0.153 ± 0.57.

SSEDYALVLRSSGALVCSCL showed an amyloid nucleation score of 0.418 ± 1.

On to SSETCTK, for which the amyloid nucleation score was -0.024 ± 0.55.

As to SSFDMRDILYLSSNILRSRM, the amyloid nucleation score was -0.505 ± 0.35.

In turn, SSFIAYASSDTWFTVKA had an amyloid nucleation score of 1.09 ± 0.36.

In the case of SSFRKTLLMVIYARNEGCMS, the amyloid nucleation score is 0.471 ± 0.97.

SSINMVVSPK showed an amyloid nucleation score of 1.09 ± 0.3.

Take SSIVKYSCLVVFFQRNHVIP: the amyloid nucleation score result was “inactive”.

SSKEWLNADAVPGNGVEAIV yielded an amyloid nucleation score of -0.338 ± 0.53.

On to SSLPDAWVYLGSSWLEDHGR, for which the amyloid nucleation score came out at 0.461 ± 0.7.

In turn, SSLWTFTHRSKVGRYDFMAV yielded an amyloid nucleation score of -1.51 ± 1.1.

SSMGPFLSV had an amyloid nucleation score of 0.014 ± 0.48.
